From patent US6809076B2, “Use of anticoagulant agents in the extracorporeal treatment of blood” (Abbott GmbH & Co. KG, priority 2000, dated 2004)
Marks after values point to notes of the source that are not given here. PEG = not defined here

Key:
[1] = system: plasma fibrin formation; assay: APTT determination in dialysis patients; format: in vivo, human
Procedure: The determination of the activated partial thromboplastin time (APTT) is based on plasma fibrin formation induced by addition of a partial thromboplastin (Actin FS) and calicum [sic] ions to the plasma. Ellagic acid is used as activator.
The sample volume is at least 450 μl.
The controls used are control plasma in the normal range, control plasma in the therapeutic range, control plasma in the low therapeutic range and a quality control in the normal range, for example the controls commercially available from Dade citrol 1, Citrol 2, Citrol 3 and Coag Trol N.
The measurement is carried out in an ACL 3000.
The ACL 3000 is a completely automatic, microcomputer-controlled centrifugal analysis system. After the start of the analysis cycle, sample and Actin are pipetted separately into the half-cuvettes of a reaction rotor made of acrylic glass with 20 cuvettes, and are mixed and then incubate d. After the incubation, calcium chloride is pipetted into the cuvettes, mixed and measured. Measurements are carried out while the rotor is rotating. The light source for the nephelometric measurement is a light-emitting diode (LED) whose light beam is directed via a light guide system (γ=660 nm) onto the measuring cuvettes. The scattered light distribution is measured at an angle of 90° to the light source with the aid of a semiconductor sensor located underneath the rotor carrier. The measured results can also be stated as ratio and describe the ratio of the current value to the individual baseline value for a patient before the dialysis with PEG-hirudin.
The accuracy of measurement is +10% to −10%.

[2] = target: thrombin (Homo sapiens, UniProt P00734); assay: Specific antithrombin activity (ATU, WHO I thrombin standard); format: biochemical
Excerpt: The blood levels described above can usually be obtained with bolus doses in the range from about […] to about 1400 ATU/kg, preferably from about 400 ATU/kg to about 1200 ATU/kg and, in particular, from about 600 ATU/kg to about 1000 ATU/kg, of body weight. After adaptation it is possible to treat individuals with chronic renal insufficiency, with an average of three exracorporeal circulations a week, with a dosage of about 200 to about 1000 ATU/kg, preferably of about 200 ATU/kg to about 800 ATU/kg and, in particular, from about 400 ATU/kg to about 600 ATU/kg, of body weight. The abbreviation ATU stands for antithrombin units bas ed on the WHO I thrombin standard.

[3] = target: T1, meizothrombin (Homo sapiens, UniProt P00734); assay: ECT (ecarin clotting time) determination in dialysis patients; format: in vivo
T1 construct: produces meizothrombin by cleavage of the prothromin in the plasma; from tissue; host or cells: citrated venous blood/plasma of human dialysis patients
Procedure: Determination of the ECT (ecarin clotting time) is based on the inhibition of the coagulation activity of meizothrombin. Ecarin, a purified fraction of Echis carinatus venom, produces meizothrombin by cleavage of the prothromin in the plasma. The time until fibrinogen coagulates induced by ecarin is measured.
The sample volume is about 100 μl.
Standard E: [c]=2500 ng/ml (1:20 dilution of standard C with normal human citrated plasma)
The measured results can also be stated as ratio and describe the ratio of the current value to the individual baseline value for a patient before the dialysis with PEG-hirudin.
The accuracy of measurement is +30% to −10%.

[4] = system: vascular complications; assay: Prophylaxis of vascular complications between hemodialysis sessions; format: in vivo, human; conditions: residual concentration in blood between the hemodialysis sessions, 20 patients
Procedure: (§1) 20 male and female patients between 18 and 75 years who must regularly undergo hemodialysis were selected. After an initial treatment with heparin (UFH), each patient was given an intravenous injection, immediately before the first dialysis during PEG-hirudin treatment, of a dose of 0.08 mg/kg of PEG-hirudin with a specific antithrombin activity of 13,354 ATU/mg of protein per kg of body weight. This was followed by hemodialysis with an average duration of 4 hours, 3×a week using a Hemophan low flux membrane in a GFS plus 16 dialyzer. When the dialysis was complete and before the subsequent dialysis sessions, firstly the PEG-hirudin concentrations in the patient's blood were determined. The measured values served as the basis for the amount of the PEG-hirudin doses to be administered immediately before each hemodialysis.

[5] = system: thrombin; conditions: human, in vivo, iv, 0.08 mg/kg
Procedure: as §1
Determination of the anti-IIa activity is based on measurement of the activity remaining after addition of excess thrombin to the sample. Heparin and other non-thrombin serine proteases are neutralized before the assay by adding prothamine [sic] chloride and aprotinin to the sample. […]
The measurement is carried out in an ACL 3000 (incubation time: 120 s; inter-ramp interval: 3 s; delay time: 3 s; aquisition time: 120 s; speed: 600 rpm). The extinction is measured using a 405 nm filter at a constant rotor speed. […]

[6] = dialysis 04, first with PEG-hirudin (0.08 mg/kg i.v.)
[7] = dialysis 05, PEG-hirudin i.v. before each dialysis
[8] = dialysis 06, PEG-hirudin i.v. before each dialysis
[9] = dialysis 07, PEG-hirudin i.v. before each dialysis
[10] = dialysis 08, PEG-hirudin i.v. before each dialysis
[11] = dialysis 09, PEG-hirudin i.v. before each dialysis
[12] = dialysis 10, PEG-hirudin i.v. before each dialysis
[13] = dialysis 11, PEG-hirudin i.v. before each dialysis
[14] = dialysis 12, PEG-hirudin i.v. before each dialysis
[15] = dialysis 13, PEG-hirudin i.v. before each dialysis

- ECT Bolus 5' after admin. [3, 6]: 3.0 [s] [ratio]
- ECT Bolus 5' after admin. [3, 10]: 3.1 [s] [ratio]
- ECT Bolus 5' after admin. [3, 15]: 3.1 [s] [ratio]
B1: PEG-hirudin: polyethylene glycol conjugates of hirudin; preferably SEQ ID NO:1 polypeptide with PEG residues on lysine 27 and lysine 33 (conjugate)
chain: VVYTDCTESGQNLCLCEGSNVCGQGNK(PEG)CILGSK(PEG)GERNQCVTGEGTPRPQSHNDGDFEEIPEEYLQ
modifications: ends and bridges not checked
- APTT After dialysis [1, 6]: 2.2 ratio
- APTT Bolus 5' after admin. [1, 6]: 2.5 ratio
- APTT Before dialysis ([1]; dialysis 04, first with PEG-hirudin (0.08 mg/kg i.v.), before dose): 1.0 ratio
- APTT After dialysis [1, 7]: 2.3 ratio
- APTT Before dialysis [1, 7]: 1.7 ratio
- APTT After dialysis [1, 8]: 2.3 ratio
- APTT Before dialysis [1, 8]: 1.9 ratio
- APTT After dialysis [1, 9]: 2.2 ratio
- APTT Before dialysis [1, 9]: 1.9 ratio
- APTT After dialysis [1, 10]: 2.5 ratio
- APTT Before dialysis [1, 10]: 2.0 ratio
- APTT Bolus 5' after admin. [1, 10]: 2.6 ratio
- APTT After dialysis [1, 11]: 2.4 ratio
- APTT Before dialysis [1, 11]: 2.0 ratio
- APTT After dialysis [1, 12]: 2.3 ratio
- APTT Before dialysis [1, 12]: 2.0 ratio
- APTT After dialysis [1, 13]: 2.3 ratio
- APTT Before dialysis [1, 13]: 2.0 ratio
- APTT After dialysis [1, 14]: 2.3 ratio
- APTT Before dialysis [1, 14]: 2.0 ratio
- APTT After dialysis [1, 15]: 2.2 ratio
- APTT Before dialysis [1, 15]: 1.9 ratio
- APTT Bolus 5' after admin. [1, 15]: 2.5 ratio
- specific antithrombin activity ([2]; PEG-hirudin given to the patients): 13,354 ATU/mg of protein
- specific activity ([2]; Standard A, 26.6 mg/ml): 11,696 ATU/mg of protein
- prophylactic protection against vascular complications [4]: ensured prophylactic protection against vascular complications
- Anti-IIa After dialysis [5]: 818 ng/mL
- Anti-IIa Bolus 5' after admin. ([5]; 5 min): 1298 ng/mL
